Measured values as given in the DeepSol protein solubility set.

test: soluble on expression in E. coli; label from the status in PepcDB or PDB records

| Sequence | soluble on expression in E. coli |
| --- | --- |
| MGSDKIHHHHHHMTREYGTGEIFHQMGDRVDALHYVLEGHVVAKAVTPEGVERYVLGFLPGTIFGQSPFFNRAPAETLFVSVGHTVAVALGRDYIYGEVAQRHPSLLLNLLESDAYRHRVFGRHIADATLRDLETRLCRFILHLVTEASDPVPVEQALTDAAAEVHPRTGDEGAEGPADCPARCHSGASALFSHPGLTHEDVARYLGLHRVTVSNLLGGLRRAGVLGQFNRKVIEVCDGAELVARAGMSGDGDRWP | not soluble |
| MARKNQKAPWEPEEEIIWVSKSEMKRDMEELQKLGEELVGLKPAVLEKFPLSEDLREAIADAQRFKNEARRRQLQRIGKLMRYEDPEPIQAALDKVRNKHSQATAALHKLEMLRDRVVEEGDKAIDDVMELYPEADRQRLRQLARQAAKEKKAGKPAKSYREIFQILKALNEEE | soluble |
| ENRDCYSLYRMNPADGKIQQLEVSEDLVNSFSLAQNAPVMVYYGQSASNSDRLYTMNTKKMKSSLLEDLSKDILKDVELGECKAWSFTNSRGDTIYGRYYLPPHFDANRKYPMIVNYYGGCSPVSRNFESRYPHHAYAALGYVVYVIEPSGATGFGQEFSARHVNTAGEGVAQDIIEGTKQFCKEHAFVNDKKIGCIGASYGGFMTQYLQTQTDIFAAAISHAGISDHTSYWGEGYWGYSYSEVSMANSYPWSNPDLFVKQSPLFNADKIHTPLLFLHGDADVNVPVGESIQMFTALKLLGRETAFVAVTGQDHHIVDYGKRIQWQNTIFAWFAKWLQ | not soluble |
| MSLAIIPGVEQKPMSSNLESRIDQGTGREPADMVLKGGRFFDLVTGELVASDIAICGDTVVGTCGDYKGRHEIDISGKIVVPGFIDTHLHIESSLVTPHEFDRCVLPYGVTTAICDPHEIANVLGAEGLQFFLDSAMETIMDIRVQLSSCVPATHLETSGADLPIEKLLPFRNHPKVIGLAEFMNFPGVIHKDPVCMAKLEAFQGQHIDGHAPLLSGAALNGYLAAGIRTEHECTSAAEALEKIRKGMHILVREGSVSKDLHALMPIITERLSPYLALCTDDRNPLDIAEQGHLDYMIRTAIASGVEPLAIYRAASISAAKAFGLRDRGLVAPGWRADLVVIDTLQNCKASMVLSGGRLVDDALFATRKPVAPVGLDSVKARPVLASHFGVPVTEGETPVMGVLPGKIITEHRRYKLPTDGNQTTVDLENDIIKVAVIERHGKNGNHANGFVQGFGLKKGAIASTVGHDSHNICVVGVSEDDMALAANRLGDIKGGFVVVEDGRVTGEIALPVAGLMSLEPYETVRDTLHTLRKAAYALGTTLEEPFLQVAFLPLPVIPHLKISDMGMVDVDRFALIEGHHHHHH | soluble |
| MALNDNPIPKSVPLHPKSGKYFHNLHARDLSNIYQQCYKQIDETINQLVDSTSPSTIGIEEQVADITSTYKLLSTYESESNSFDEHIKDLKKNFKQSSDACPQIDLSTWDKYRTGELTAPKLSELYLNMPTPEPATMVNNTDTLKILKVLPYIWNDPTCVIPDLQNPADEDDLQIEGGKIELTCPITCKPYEAPLISRKCNHVFDRDGIQNYLQGYTTRDCPQAACSQVVSMRDFVRDPIMELRCKIAKMKESQEQDKRSSQAIDVL | soluble |
| MVARIYRPAKTAMQSGKAKTDQWLLEYEPEKPRVVEPLMGYTSSGDMKSQIRLFFASQEEAVAYATRNDIPYRLMEPHEPKRRKVSYSDNFRFDRPQPWTHLEHHHHHH | not soluble |
| MLGENHALIYEFPDFADHIRHLKKNNTIFATMAQRYHELDHKIRALELTKVPTDDEHFVALKLERLHLKDKLYQYLVHDAI | soluble |
| MLIILLLTVLTVYLVYELYWKRRNFPPGPCPLPVFGNLLSIANPPPGYEAFERWTKKYGDIYTFWIGNTPHIMINTWDKIKETYIRDAETYTNKVRLPALDLFRGGEYGIIDSNGATWREHRRFALSTMRDFGLGKNLMQENILMEVQDVFARLDAKLGSETDIPEVFDHAVANVVNQLLFGYRFVGPKESEYQELKRIIEAPTDLFGKPHMFLAMNIPVIAKLMPEFMYEGPFKDFRDTAFAFFNKQIEAHRQEVDLNDLNSESTDFVETFLKEQKRRESEGDSETFSNVQLSNVCMDLWFAGLNTTTNTITWAISYILHHPEVQDKVHEEMDKVIGSDRLITTADKNDLPYFNAFINEAQRGINIVPLNLQHATTRDTVINGFKIPKGTGVVAQISTVMNNEEVFPDPHTFNPDRFIDEHGKLKRVEELAPFSVGKRSCPGEGLARMELFLFIANFLNRYKIYPSKEGPPSMDKSNGALIAPRLFSATLKRRS | not soluble |
| MARGPKKHLKRLAAPKAWMLDKLGGVFAPRPSTGPHKLRESLPLLIFLRNRLKYALNGAEVTKIVMQRLVKVDGKVRTDPTYPAGYMDVITLEKTGEFFRLVYDVKGRFVIHRISAEEAKYKLCKVKKTQLGAKGVPFLVTHDGRTIRYPDPLIHANDSVQVDIASGKITDYIKFDSGNLCMITGGRNLGRVGTVVNRERHPGSFDIVHIKDSQGHVFATRLTNVFIIGKGNKPYISLPKGKGVKLSIAEERDKRLAAKTH | not soluble |
| MAKRVIIAGGNIAGTIVANRLVQKLEHEVNKGDVEIVALNKSDEHIYLPGQLLVGFGLETPGELVRKESELLDPRIKFLHGQKGTISKIDVANHSVQTADGVSHSYDYLVITTGVDYTWDEIPGYRSAAHTVYEYDDAIKMREALEKFDGGTIVVNTAKLPHRCPVAPLEVTLILDDYLRKRGIRDKTKIIYTYPVQGVFGRPITNKFMLRLFEQRGIEVHSPFTVTSVDPNNKVIESQEGEKLKFDMLIGIPPNMGAKVIEDSGIGDRRRWVPTDKFTLRMKDHSNVYVMGDATDLPVSKAGSTADFESYTVAHNIANDIKGNLGVKHYGGDVLCYIATGTDQATYIRFSYTMNESPPPPSYVHWWGKIMYNKMYWTVTAKAVVLEHHHHHH | not soluble |
| MNNTVKTDGDSVSGRDLPITKISEDRFERSAYSAQLANIICDVAPWGASTVFSLTGQWGSGKTSLVNLIRSEESLSNEKWTIVDFNPWVASDPQSLIEEFYRVIVGTVPDDKTGQKIKTVLQKTFSTIGSIAGGVGGFGVLEALALSKGVDAANAVYKTWKQEQDSWPTLYTRAANHFKDLNKRILIVVDDIDRLHTDELALLMKVIRLLGRFPQVNYLLVYEEESLLTTLARSTAVGGSEDDALRFMEKIVQYPFDVPPLTSFQIEKELSALFDKLFQGVSLSGDPEDFALVKSRMFDVWEKTLVTPRLLHRFAALLTNWTRIYGSGEVNGVDLTILATIRIVFPSVYKRLSRAKEVLLQGGRTTGLEHHHHHH | soluble |
| MGSDKIHHHHHHMEKRQSIKDIEANGDVRGLFLLGAATLNQARNGPFWRLELRDATGTMEAKIWSPQSQAYPDLAPGQIVDLEGRSGTYRDRVEVTVERLRTLGEAEQASLDISQFLPASERPAAEMLEELERLCREVFTHAPWRKFVLGVLRDDDVRPRLLVAPAAKAVHHAFVGGLVEHILSVTRLCLHLAEHYPELDRQALVAGAIFHDIGKVWELTGGLANDYSDEGRLLGHIHIGLERIEPHLRKSGLEPELVMHFKHLILSHHGELEYGSPKRPKTAEAMVLHYADNIDAKMAQMRGLFANMGEGETGWSPYQNTLQRFLYRPARTPEPVATTRRRRGTPEVEQCSLLSKA | not soluble |
| MGSDKIHHHHHHLPALPHIPIPVNFEEYCQQKAAPPGSSTYYALRQAPAASQPLLTALFALRREFEETVKETSDPTIGRTKLAWWQNEIAALASDSPSHPVSKALAAYLPDVKTEYPALQTLLAGFEMDLDQARYLDYPNLRRYVQGVGGTFASLVARATAKDAAQASNWSAPLGEALMLAQFVVETGHDARHGRIYIPIDEMQRFNVTAADLINRKYTEAFTELMRFETKRARDALQSALGAVPGSERRTQRTLVAQAALASALLDEIERDGYHVLHQRIALTPIRKLWIAWRAK | not soluble |
| GSGSAMIEARQVSELSTRIISSVQMLSNAQNEQERKEAGRVLFEQLESLLTHIKELGGESFDSKLLDALESNVQNVINNLAELGVTVERKLWLAKEIDTRVEEMRLLSEELEQLTRTQVQNTSTIAVANVTHIYDLLEANKKDQVYQALDALVEVDLDLTERLHELHLLAFKMLNQIEEARTLTNVDRIQQIQTAFENNLKIMKRRVLAVEDPTRSKQMSQLLTELGKRQVVFTILLQQYENNEQSQQLMQKTLELFSELNSTVNKLVDDSNKTTT | soluble |
| MSATMQSETVYDAVIVGGGVAGGTAALLLRQRGCSVALLEKRPLDYYKALCTHFIQPSAVPILRRVGLDHVLEPEASTRTKASFVTSEGVIDTPGGYTDDAATAYAYNLERRVLDPALRARARSEGVDLLDEATVTACRLQADGLWRVEADADTDTDGARHPRVLRARVVIAADGRRSQMAQWLNNAAVQHDNQRAAVFAQFEGIAVPGGNRSLFILAEREMGFVYPLTGGRTLLSAYVEKDRAAQWRHSADAGAPLLDFFARLAPGLDLAGARLLTPVLGYADYPSQFRQPVCGAVPFIGDAALSLDPMSGVGCGFAMEAAALLDEHLGPALQAQGNSAIGPALDAYASRFDTHFAAHARGIVADSLIAKQPAAQAALYRAVIADPALQRDYLALTGRLITPQAFQRAYFSAHVRSQRAATTHAHPPERASELSLEHHHHHH | not soluble |
| SQAHVVDFELQYREAIDCPCRTFGVDRSIGQYLHILVCIEKIAVYQLHQIGSVLIGFVDTAFDYQRISRIDVGITYNIFEMPLGIIDPILQKQIMLDRLRP | not soluble |
| MELVAYAMAAKLITETVQITINSISETLETINSDPTVRIDNLNELKRRNDEAHSQYMKELKEAREESDDALAKRQATADSQISELINSNNEAIRELQKKFDEDAAAYDRSIKETTREHDQKMKEMRSETREAQEKAERNHREKMSKIKEDHDKERVAALQKIDAAKKEGAEMIALVEMEKQKIVRERADEMNEHHKNMETMTKEYHQKREEIHEVIKNKKLDILKDKREHQRIEHEKISENMKNAFNALLNVQRENNAKHLVSNFQQLFEPVEDVKKLLDSVKIKIELVDGKDPKIEAEQLYDLEEIQAKKSIFENRIRRLRSILIHSSFTDRKLHEICSTTISNIETLMNKSDILSVCHHFPRAVEKQDLKKIKHYADMARSLSDTFSQELGNIIDTFSTSSGMYIIEKEHQEAIEN | soluble |
| MARTLFLEEGPMFFEKIAPYTYRIPRQGKMRVDAVFFASKEILKDLEAENYASLQQLMNVATLPGIVEPALAMPDIHWGYGFPIGGVAAFDPEEGGVVSPGGVGFDINCGVRLLASHLTLEDLLPRQKELADALYRLVPSGVGSERRDVRFSKRELKEILKEGAGWLVKRGYGYPEDVRFIESQGRLPWANPDKVSERAFERGAPQIGTLGSGNHFLEVQYVDEVYDEEAALAFGLFKGQVTVLIHTGSRGLGHQVCQDYVERFLKVAPRYGIELVDKQLAAAPIKSPEGQDYLQAMAAAANFAFANRQLIAHFVREAFEKVGFTPRDHGLRVLYDLAHNNAKFEEHRGRRVLVHRKGATRAFGPGHPEVPEEYRRVGQPVLVPGDMGRYSYVLAGTEKAMEVSFGSSCHGAGRKMSRHQAKKVARERNLVKELAERGILVRAATRATVDEEMPEAYKDVSLVVEAVEGAGIGKKVARLRPLIVVKG | soluble |
| KEIIVNENDILLLWDGSNAGEIFLGKKGILSSTMVKLEQKNKIMDDLYLFYSLKLKESFLKSQTKGTGIPHVDKKIFENIKIPLPPLEEQKQIAKILSDFDN | not soluble |
